According to patent publication US9056079B2, “Molecules interfering with binding of calbindin to inositol monophosphatase for the treatment of mood disorders” (Ben-Gurion University of the Negev Research and Development …, priority 2008, dated 2015):
Read-outs that look alike come from different tables or passages of the source. Where no end group is shown, it is not given here.

Legend:
[1] = system: IMPase; details: 30 mM LiCl; cited from earlier work
[2] = target: T1, IMPase (Bos taurus, UniProt P20456); details: read-out: Ki, uncompetitive inhibition of IMPase; cited from earlier work
T1 sequence (P20456 1-277): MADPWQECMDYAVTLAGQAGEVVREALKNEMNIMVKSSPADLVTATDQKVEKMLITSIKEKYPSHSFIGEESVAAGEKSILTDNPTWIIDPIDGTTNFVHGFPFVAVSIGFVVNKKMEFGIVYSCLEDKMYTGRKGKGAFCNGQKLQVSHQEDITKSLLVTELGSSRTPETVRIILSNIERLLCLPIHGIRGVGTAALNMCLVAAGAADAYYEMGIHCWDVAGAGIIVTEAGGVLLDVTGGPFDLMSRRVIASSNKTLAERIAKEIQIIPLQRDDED

[3] = target: T2, calbindin-activated IMPase (Homo sapiens, UniProt P05937); test: IMPase activity in mouse brain crude homogenate in the presence of recombinant human calbindin and short peptides (malachite green phosphate assay); format: biochemical; parameters: from tissue; host or cells: mouse brain crude homogenate; key to IMPase Activity, nean ± SD: fraction of mean control value in each run; details: for IMPase Activity, nean ± SD / effect of peptide on the enhancement of IMPase activity by calbindin (in words): 10 μM peptide; for IMPase Activity, nean ± SD: values normalized to the mean of the control values in each run; for effect of peptide on the enhancement of IMPase activity by calbindin (in words): 20 μM calbindin
T2 sequence (P05937 1-261): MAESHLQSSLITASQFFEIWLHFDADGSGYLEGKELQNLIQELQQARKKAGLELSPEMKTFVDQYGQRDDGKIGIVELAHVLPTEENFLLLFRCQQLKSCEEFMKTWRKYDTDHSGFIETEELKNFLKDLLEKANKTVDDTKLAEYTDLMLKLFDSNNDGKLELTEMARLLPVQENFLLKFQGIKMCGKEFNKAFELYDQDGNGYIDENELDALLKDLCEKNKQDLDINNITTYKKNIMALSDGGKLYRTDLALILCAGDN
Experimental: (§1) IMPase activity in mouse brain homogenates was measured as previously described [Cryns et al., 2008]. Inorganic phosphate liberated from inositol-1-phosphate was quantified spectrophotometrically in an ELISA reader (iEMS, Labsystems) using the malachite green color reagent. To study the effect of the synthetic peptides on the enhancing interaction between calbindin and IMPase the reaction was carried out in the presence of 20 μM human recombinant calbindin [Thulin and Linse, 1999] (produced by PPS, Rehovot, Israel, using the plasmid kindly donated by S. Linse, Lund, Sweden) and in the presence or absence of 10 μM of each of the peptides. In order to distinguish IMPase activity from non-specific phosphatases the reaction was carried out in the presence and absence of 30 mM LiCl. […] The enzyme activity was calculated as the difference between the activity values in absence and in the presence of Li. Values were normalized to the mean of the control values in each run.

[4] = system: IMPase; test: Basal IMPase activity in the presence of peptide but in the absence of calbindin (control for nonspecific effect); format: biochemical
Experimental: To control for a possible nonspecific effect of short peptides on IMPase activity the enzyme's activity in the presence of Peptide 1 (but in the absence of calbindin) was assessed. […] Furthermore, possibilities were checked that there was a protease activity in the homogenate, and that eventual prior interaction between IMPase and calbindin prevents interference by the active peptides. To this end calbindin was preincubated with the homogenate for 10 min prior to the addition of the substrate. No difference in IMPase activity was found in these two experiments.
as §1, with “peptides.” for “peptides. In order to distinguish IMPase activity from non-specific phosphatases the reaction was carried out in the presence and absence of 30 mM LiCl.”, “Values were normalized to the mean of the control values in each run.” left out

[5] = target: T2, calbindin-activated IMPase; test: IMPase activity in postmortem human brain crude homogenate in the presence of human recombinant calbindin; format: biochemical; parameters: from tissue; host or cells: postmortem human brain crude homogenate
Experimental: The designed peptides were validated by in vitro IMPase activity measurements. As shown in the Examples (Table 1), IMPase activity of mouse brain crude homogenate is increased by 1.9 ±1.0 (S.D.) fold in the presence of 20 μM human recombinant calbindin. […] Peptides 2 through 4 (SEQ ID NO:2 through SEQ ID NO:4), which included the Lys-Glu-Lys motif or part of it, inhibited the activating interaction similarly to Peptide 1.
as §1

[6] = target: T2, calbindin-activated IMPase; parameters: from tissue; host or cells: postmortem human brain crude homogenate; details: postmortem human prefrontal cortex crude homogenate; recombinant human calbindin; Shamir et al., 2005; cited from earlier work
[7] = 20 μM human recombinant calbindin

Row | Compound | IMPase Activity, nean ± SD [3, 7] | further results
1 | [Cl-].[Li+] [LiCl] |  | inhibition of IMPase activity (in words) [1]: totally inhibits IMPase activity
2 | [Li] [lithium] |  | Ki [2]: 800 µM
3 | IAAAYP [Peptide 8] | 2.3 ± 1.7 | 
4 | IAEAYP [Peptide 6] | 2.5 ± 1.1 | 
5 | IAEKYP [Peptide 4] | 1.1 ± 0.6 | 
6 | IKAKYP [Peptide 2] | 0.9 ± 0.5 | 
7 | IKEAYP [Peptide 3] | 1.0 ± 0.5 | 
8 | IKEKYP [Peptide 1, hexapeptide identical to residues 58-63 of IMPase] | 1.2 ± 0.9 | effect on basal activity of IMPase [4]: did not affect the basal activity of IMPase; effect of peptide on calbindin-activated IMPase (in words) [5]: abolished this effect; effect of peptide on the enhancement of IMPase activity by calbindin (in words) [3]: strongly reduced
9 | Ile-Lys-Glu-Lys-Tyr (IKEKY; Peptide derived from the segment including residues 55-66 of IMPase) [Peptide 9] | 1.9 ± 0.6 | effect of peptide on the enhancement of IMPase activity by calbindin (in words) [3]: did not interfere with the enhancement of IMPase activity by calbindin
10 | KHIKPS [Peptide 7] | 1.4 ± 0.2 | 
11 | Lys-Glu-Lys (KEK; Peptide derived from the segment including residues 55-66 of IMPase) [Peptide 10] | 2.6 ± 1.2 | effect of peptide on the enhancement of IMPase activity by calbindin (in words) [3]: did not interfere with the enhancement of IMPase activity by calbindin
12 | SYEHKP [Peptide 5] | 1.4 ± 0.6 | 
13 | calbindin: member of the vitamin-D-dependent calcium-binding proteins; binds IMPase residues 55-66 and enhances its activity | 1.9 ± 1.0 | increase of human brain IMPase activity by calbindin [5]: three-fold; increase of IMPase activity by calbindin [3, 7]: 1.9 ±1.0 fold; increase of IMPase activity by calbindin [6]: 3.5 fold
